Patent publication US20180335435A1 (METAFORA BIOSYSTEMS, published 2018)

Key:
[1] = target: T1, human CAT1 (cationic amino acid transporter-1, SLC7A1) (human, UniProt P30825 1-629)
[2] = target: T1, human CAT1 (cationic amino acid …); test: radiolabeled arginine uptake in HEK293T cells expressing BLV.RBD rFc

T1 sequence (P30825 whole entry): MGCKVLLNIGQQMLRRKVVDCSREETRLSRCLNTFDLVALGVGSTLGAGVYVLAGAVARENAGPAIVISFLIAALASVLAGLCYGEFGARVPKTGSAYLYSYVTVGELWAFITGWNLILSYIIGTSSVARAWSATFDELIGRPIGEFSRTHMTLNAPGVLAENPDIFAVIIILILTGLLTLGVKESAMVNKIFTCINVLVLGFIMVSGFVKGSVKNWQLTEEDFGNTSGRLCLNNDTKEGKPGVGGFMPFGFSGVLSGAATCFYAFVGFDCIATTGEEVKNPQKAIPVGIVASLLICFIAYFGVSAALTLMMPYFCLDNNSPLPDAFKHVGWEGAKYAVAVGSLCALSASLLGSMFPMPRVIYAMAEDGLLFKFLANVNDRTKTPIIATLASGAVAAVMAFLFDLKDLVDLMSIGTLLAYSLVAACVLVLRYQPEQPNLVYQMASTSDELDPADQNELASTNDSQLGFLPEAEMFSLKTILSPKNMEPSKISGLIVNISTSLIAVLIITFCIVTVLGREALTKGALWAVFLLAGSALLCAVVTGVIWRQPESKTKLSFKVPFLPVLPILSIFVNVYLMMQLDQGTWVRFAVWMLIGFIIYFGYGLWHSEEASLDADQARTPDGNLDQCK

Binder	fold increase of binding on CAT1 overexpression against empty vector [1] [fold]	binding result [2]
BLV.RBD-mFc ligand (receptor-binding domain of the bovine leukemia virus envelope glycoprotein tagged in frame with the constant fragment of mouse … (Fc fusion, Used as a 1/10 dilution, detected with anti-mouse IgG1-Alexa Fluor 488; also called BLV.RBD ligand; BLV.RBD tagged with mouse Fc (mFc)) WRCSLSLGNQQWMTTYNQEAKFFISIDQILEAHNQSPFCPRSPRYTLDFVNGYPKIYWPPPQGRRRFGARAMVTYDCEPRCPYVGADHFDCPHWDNASQADQGSFYVNHQTLFLHLKQCHGIFTLTWEIWGYDPLITFSLHKIPAPPQGSVDVPRDCGCKPCICTVPEVSSVFIFPPKPKDVLTITLTPKVTCVVVDISKDDPEVQFSWFVDDVEVHTAQTQPREEQFNSTFRSVSELPIMHQDWLNGKEFKCRVNSAAFPAPIEKTISKTKGRPKAPQVYTIPPPKEQMAKDKVSLTCMITDFFPEDITVEWQWNGQPAENYKNTQPIMDTDGSYFVYSKLNVQKSNWEAGNTFTCSVLHEGLHNHHTEKSLSHSPGK	3	
BLV.RBD fused to a rabbit Fc (rFc) tag, expressed from pCSI expression vector (Fc fusion, also called pCSI BLV.RBD rFc) WRCSLSLGNQQWMTTYNQEAKFFISIDQILEAHNQSPFCPRSPRYTLDFVNGYPKIYWPPPQGRRRFGARAMVTYDCEPRCPYVGADHFDCPHWDNASQADQGSFYVNHQTLFLHLKQCHGIFTLTWEIWGYDPLITFSLHKIPAPPQGSAPSTCSKPTCPPPELLGGPSVFIFPPKPKDTLMISRTPEVTCVVVDVSQDDPEVQFTWYINNEQVRTARPPLREQQFDCTIRVVSTLPIAHQDWLRGKEFKCKVHNKALPAPIEKTISKARGQPLEPKVYTMGPPREELSSRSVSLTCMINGFYPSDISVEWEKNGKAEDNYKTTPAVLDSDGSYFLYSKLSVPTSEWQRGDVFTCSVMHEALHNHYTQKSISRSPGK		binds
